These results are taken from article PMC8575462, “PP2A/B55α substrate recruitment as defined by the retinoblastoma-related protein p107” (eLife, 2021).

First the molecules themselves.
B1: GST-p107 R1R2 [not stated] / B55α (PP2A regulatory subunit B55α), endogenous in U-2 OS cells [human (endogenous in U-2 OS)] (parent complex)
chain 1: KVPTCEEVIFPNNFETGNGGNVQGHLPLMPMSPLMHPRVKEVRTDSGSLRRDMQPLSPISVHERYSSPTAGSAKRRLF
chain 2: MAGAGGGNDIQWCFSQVKGAVDDDVAEADIISTVEFNHSGELLATGDKGGRVVIFQQEQENKIQSHSRGEYNVYSTFQSHEPEFDYLKSLEIEEKINKIRWLPQKNAAQFLLSTNDKTIKLWKISERDKRPEGYNLKEEDGRYRDPTTVTTLRVPVFRPMDLMVEASPRRIFANAHTYHINSISINSDYETYLSADDLRINLWHLEITDRSFNIVDIKPANMEELTEVITAAEFHPNSCNTFVYSSSKGTIRLCDMRASALCDRHSKLFEEPEDPSNRSFFSEIISSISDVKFSHSGRYMMTRDYLSVKIWDLNMENRPVETYQVHEYLRSKLCSLYENDCIFDKFECCWNGSDSVVMTGSYNNFFRMFDRNTKRDITLEASRENNKPRTVLKPRKVCASGKRKKDEISVDSLDFNKKILHTAWHPKENIIAVATTNNLYIFQDKVN
B2: Myc-B55α wild type [not stated] / Flag-pRB [not stated] (parent complex)
chain 1: B1 chain 2
chain 2: MPPKTPRKTAATAAAAAAEPPAPPPPPPPEEDPEQDSGPEDLPLVRLEFEETEEPDFTALCQKLKIPDHVRERAWLTWEKVSSVDGVLGGYIQKKKELWGICIFIAAVDLDEMSFTFTELQKNIEISVHKFFNLLKEIDTSTKVDNAMSRLLKKYDVLFALFSKLERTCELIYLTQPSSSISTEINSALVLKVSWITFLLAKGEVLQMEDDLVISFQLMLCVLDYFIKLSPPMLLKEPYKTAVIPINGSPRTPRRGQNRSARIAKQLENDTRIIEVLCKEHECNIDEVKNVYFKNFIPFMNSLGLVTSNGLPEVENLSKRYEEIYLKNKDLDARLFLDHDKTLQTDSIDSFETQRTPRKSNLDEEVNVIPPHTPVRTVMNTIQQLMMILNSASDQPSENLISYFNNCTVNPKESILKRVKDIGYIFKEKFAKAVGQGCVEIGSQRYKLGVRLYYRVMESMLKSEEERLSIQNFSKLLNDNIFHMSLLACALEVVMATYSRSTSQNLDSGTDLSFPWILNVLNLKAFDFYKVIESFIKAEGNLTREMIKHLERCEHRIMESLAWLSDSPLFDLIKQSKDREGPTDHLESACPLNLPLQNNHTAADMYLSPVRSPKKKGSTTRVNSTANAETQATSAFQTQKPLKSTSLSLFYKKVYRLAYLRLNTLCERLLSEHPELEHIIWTLFQHTLQNEYELMRDRHLDQIMMCSMYGICKVKNIDLKFKIIVTAYKDLPHAVQETFKRVLIKEEEYDSIIVFYNSVFMQRLKTNILQYASTRPPTLSPIPHIPRSPYKFPSSPLRIPGGNIYISPLKSPYKISEGLPTPTKMTPRSRILVSIGESFGTSEKFQKINQMVCNSDRVLKRSAEGSNPPKPLKKLRFDIEGSDEADGSKHLPGESKFQQKLAEMTSTRTRMQKQKMNDSMDTSNKEEK

Variants of B1 are the subject of the first experiment. Nature of the experiment: GST pull-down, western blot; U2-OS lysates; triplicate; read off a plot. (A western blot detects proteins with antibodies after separation by electrophoresis.)
chain 1 KVPTCEEVIFPNNFETGNGGNVQGHLPLMPMSPLMHPRVKEVRTDSGSLAADMQPLSPISVHERYSSPTAGSAKRRLF: the ratio to parent was ~1.
As for chain 1 KVPTCEEVIFPNNFETGNGGNVQGHLPLMPMSPLMHPRVKEVATDSGSLRRDMQPLSPISVHERYSSPTAGSAKRRLF, the ratio to parent was ~0.47.
On the same count and under the same terms, the result for chain 1 KVPTCEEVIFPNNFETGNGGNVQGHLPLMPMSPLMHPAVAEVRTDSGSLRRDMQPLSPISVHERYSSPTAGSAKRRLF reads ~0.05.

In a further experiment the parent is B2. Nature of the experiment: co-immunoprecipitation (anti-Myc IP), western blot quantitation; 293T cells, co-transfected; read off a plot.
Turning to chain 1 MAGAGGGNDIQWCFSQVKGAVDDDVAEADIISTVEFNHSGELLATGDKGGRVVIFQQEQENKIQSHSRGEYNVYSTFQSHEPEFDYLKSLEIEEKINKIRWLPQKNAAQFLLSTNDKTIKLWKISERDKRPEGYNLKEEDGRYRDPTTVTTLRVPVFRPMDLMVEASPRRIFANAHTYHINSISINSDYETYLSADDLRINLWHLEITDRSFNIVDIKPANMEELTEVITAAEFHPNSCNTFVYSSSKGTIRLCDMRASALCDRHSKLFEEPEDPSNRSFFSEIISAISDVKFSHSGRYMMTRDYLSVKIWDLNMENRPVETYQVHEYLRSKLCSLYENDCIFDKFECCWNGSDSVVMTGSYNNFFRMFDRNTKRDITLEASRENNKPRTVLKPRKVCASGKRKKDEISVDSLDFNKKILHTAWHPKENIIAVATTNNLYIFQDKVN [chain 1 S287A], the ratio to parent is ~1.5.
The same measure, in the same setting: in the case of chain 1 MAGAGGGNDIQWCFSQVKGAVDDDVAEADIISTVEFNHSGELLATGDKGGRVVIFQQEQENKIQSHSRGEYNVYSTFQSHEPEFDYLKSLEIEEKINKIRWLPQKNAAQFLLSTNDKTIKLWKISERDKRPEGYNLKEEDGRYRDPTTVTTLRVPVFRPMDLMVEASPRRIFANAHTYHIASISINSDYETYLSADDLRINLWHLEITDRSFNIVDIKPANMEELTEVITAAEFHPNSCNTFVYSSSKGTIRLCDMRASALCDRHSKLFEEPEDPSNRSFFSEIISSISDVKFSHSGRYMMTRDYLSVKIWDLNMENRPVETYQVHEYLRSKLCSLYENDCIFDKFECCWNGSDSVVMTGSYNNFFRMFDRNTKRDITLEASRENNKPRTVLKPRKVCASGKRKKDEISVDSLDFNKKILHTAWHPKENIIAVATTNNLYIFQDKVN [chain 1 N181A] it was ~1.1; in that of chain 1 MAGAGGGNDIQWCFSQVKGAVDDDVAEADIISTVEFNHSGELLATGDEGGRVVIFQQEQENKIQSHSRGEYNVYSTFQSHEPEFDYLKSLEIEEKINKIRWLPQKNAAQFLLSTNDKTIKLWKISERDKRPEGYNLKEEDGRYRDPTTVTTLRVPVFRPMDLMVEASPRRIFANAHTYHINSISINSDYETYLSADDLRINLWHLEITDRSFNIVDIKPANMEELTEVITAAEFHPNSCNTFVYSSSKGTIRLCDMRASALCDRHSKLFEEPEDPSNRSFFSEIISSISDVKFSHSGRYMMTRDYLSVKIWDLNMENRPVETYQVHEYLRSKLCSLYENDCIFDKFECCWNGSDSVVMTGSYNNFFRMFDRNTKRDITLEASRENNKPRTVLKPRKVCASGKRKKDEISVDSLDFNKKILHTAWHPKENIIAVATTNNLYIFQDKVN [chain 1 K48E], ~0.95; in that of chain 1 MAGAGGGNDIQWCFSQVKGAVDDDVAEADIISTVEFNHSGELLATGDKGGRVVIFQQEQENKIQSHSRGEYNVYSTFQSHEPEFDYLKSLEIEEKINKIRWLPQKNAAQFLLSTNDKTIKLWKISERDKRPEGYNLKEEDGRYRDPTTVTTLRVPVFRPMDLMVEASPRRIFANAHTYHINSISINSDYETYLSADDLRINLWHLEITDRSFNIVDIKPANMEELTEVITAAEFHPNSCNTFVYSSSKGTIRLCDMRASALCDRHSKLFEEPEDPSNRSFFSEIISSISDVKFSHSGRYMMTRDYLSVKIWDLNMENRPVETYQVHEYLRSKLCSLYENDCIFDKFACCWNGSDSVVMTGSYNNFFRMFDRNTKRDITLEASRENNKPRTVLKPRKVCASGKRKKDEISVDSLDFNKKILHTAWHPKENIIAVATTNNLYIFQDKVN [chain 1 E347A], ~0.55.
